# Experimental data reported in paper PMC9098913, “In vitro reconstitution of Escherichia coli divisome activation” (Nature Communications, 2022).
# B1: FtsA R286W-His6: FtsA R286W (1-405) with amphipathic helix replaced by C-terminal His-tag (protein)
# chain: MIKATDRKLVVGLEIGTAKVAALVGEVLPDGMVNIIGVGSCPSRGMDKGGVNDLESVVKCVQRAIDQAELMADCQISSVYLALSGKHISCQNEIGMVPISEEEVTQEDVENVVHTAKSVRVRDEHRVLHVIPQEYAIDYQEGIKNPVGLSGVRMQAKVHLITCHNDMAKNIVKAVERCGLKVDQLIFAGLASSYSVLTEDERELGVCVVDIGGGTMDIAVYTGGALRHTKVIPYAGNVVTSDIAYAFGTPPSDAEAIKVRHGCALGSIVGKDESVEVPSVGGRPPWSLQRQTLAEVIEPRYTELLNLVNEEILQLQEKLRQQGVKHHLAAGIVLTGGAAQIEGLAACAQRVFHTQVRIGAPLNITGLTDYAQEPYYSTAVGLLHYGKESHLNGEAEVEKRVTASV
# modifications: Cy3 or Cy5 at the N-terminus in the labelled form (sortagging as for native FtsA); left off: TwinStrep-SUMO, N-terminal, cleaved | 5xGlycine tag, N-terminal, kept | His6, C-terminal, kept
# Assays:
# [1] = system: FtsZ
# Method in brief: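 Cy5-labelled His-tagged FtsA variants (0.5–1 µM) tethered to supported membranes via Tris-NTA lipids, with Tris-NTA density set by mixing SUVs; FRET/FRAP used equimolar Cy3/Cy5 FtsA. FtsZ–FtsA co-treadmilling imaged as dual-colour videos at one frame per 2 s; dynamics and colocalization quantified by automated image subtraction analysis.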
# [2] = system: FtsZ; details: […] Tris-NTA; p-value 3.86 × 10^−4; three repeats
# Method in brief: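 Cy5-labelled His-tagged FtsA (0.5–1 µM) bound to Tris-NTA-containing supported membranes, 20 min, washed; FtsA density set by Tris-NTA fraction. Time-lapse images drift-corrected; colocalization with FtsZ as Pearson's coefficient, FtsZ/FtsA ratio from linear-regression slope of intensity scatterplots.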
# [3] = Membrane off-binding rate (koff) of FtsA from FRAP; set-up: Off binding rate koff: unit not given here; details: Fig. S4i, summary value
# Method in brief: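 Equimolar Cy3- and Cy5-labelled FtsA plus 20% unlabelled FtsA on membrane; a rectangular ROI is bleached with the 641 nm laser and recovery imaged at one or two frames per second. Diffusion coefficient and off-rate are separated by fitting the shape of the recovery profile, using the change in slope at the bleach borders.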
molecule,measurement,setting,value
B1,"co-treadmilling with FtsZ, reduction compared to the reversibly membrane-binding protein",[1]; […] Tris-NTA R286W-His6 vs 0.8 µM R286W,about 50%
same,PCCdiff His-tagged FtsA/FtsZ,"[1]; […] Tris-NTA, p-value […] 10^−4 (vs WT-His6), 7.78 × 10^−5 (vs R286W), three repeats",0.36 ± 0.02
same,PCC His-tagged FtsA/FtsZ,[2],0.63 ± 0.02
same,Off binding rate koff,"[3]; 0.10 % Tris-NTA lipids, + FtsZ",0.0533
same,Off binding rate koff,"[3]; 0.10 % Tris-NTA lipids, without FtsZ",0.0639
same,Off binding rate koff,"[3]; 0.40 % Tris-NTA lipids, + FtsZ",0.0309
same,Off binding rate koff,"[3]; 0.40 % Tris-NTA lipids, without FtsZ",0.0536
same,Off binding rate koff,"[3]; 0.60 % Tris-NTA lipids, + FtsZ",0.0489
same,Off binding rate koff,"[3]; 0.60 % Tris-NTA lipids, without FtsZ",0.0398
same,Off binding rate koff,"[3]; […] Tris-NTA lipids, + FtsZ",0.0386
same,Off binding rate koff,"[3]; […] Tris-NTA lipids, without FtsZ",0.0644
